This series addresses T1, I-CreI variant RRN (R44, R68, N70, N75).
T1 chain: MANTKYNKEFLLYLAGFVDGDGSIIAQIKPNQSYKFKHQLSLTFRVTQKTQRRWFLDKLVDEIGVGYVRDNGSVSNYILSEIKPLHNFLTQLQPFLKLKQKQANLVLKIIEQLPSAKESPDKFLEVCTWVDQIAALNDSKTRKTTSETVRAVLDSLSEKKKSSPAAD

These results are taken from patent US20100021448.

B1: I-CreI variant DRN (D44, R68, N70, N75) (protein)
chain: MANTKYNKEFLLYLAGFVDGDGSIIAQIKPNQSYKFKHQLSLTFDVTQKTQRRWFLDKLVDEIGVGYVRDNGSVSNYILSEIKPLHNFLTQLQPFLKLKQKQANLVLKIIEQLPSAKESPDKFLEVCTWVDQIAALNDSKTRKTTSETVRAVLDSLSEKKKSSPAAD
In the case of B1, the “cleavage of chimeric DNA targets on co-expression” value is reported as “no cleavage of chimeric targets could be detected by co-expression of the same weak mutants”.
